According to patent US20230212319A1, “NOVEL ANTIGEN BINDING DOMAINS AND SYNTHETIC ANTIGEN RECEPTORS INCORPORATING THE SAME” (University of Southern California, priority 2020, published 2023):

B1: 22239 (protein)
chain: MALPVTALLLPLALLLHAARPACPYINIYNAEPANPSEKNSPTQYAYGTGGGGSGGGGSGGGGSEFDIQMTQSPSSLSASVGDRVTITCKASDHINNWLAWYQQKPGQAPKLLIYGATTLETGVPSRFSGSGSGTDYTLTISSLQPEDFATYYCQQSWNTPWTFGQGTKLEIKRLEDLKNVFPPEVAVFEPSEAEISHTQKATLVCLATGFYPDHVELSWWVNGKEVHSGVCTDPQPLKEQPALNDSRYCLSSRLRVSATFWQNPRNHFRCQVQFYGLSENDEWTQDRAKPVTQIVSAEAWGRADCGFTSESYQQGVLSATILYEILLGKATLYAVLVSALVLMAMVKRKDSRGRAKRSGSGATNFSLLKQAGDVEENPGPTSATMDWIWRILFLVGAATGAHSGPQLGPYELWELSHGSGGGGSGGGGSGGGGSFEQVQLQQPGAELVKPGASVKMSCKASGYAFSSYWINWMKQKPGQGLEWIGQIYPGDGDTNYNGKFKGRATLTADTSSSTAYMQLSSLTSEDSAVYFCARSITTVVGCAMDYWGQGTSVTVSSTRIQNPDPAVYQLRDSKSSDKSVCLFTDFDSQTNVSQSKDSDVYITDKCVLDMRSMDFKSNSAVAWSNKSDFACANAFNNSIIPEDTFFPSPESSCDVKLVEKSFETDTNLNFQNLSVIGFRILLLKVAGFNLLMTLRLWSSRAKRSGSGVKQTLNFDLLKLAGDVESNPGPSRGHMTEYKPTVRLATRDDVPRAVRTLAAAFADYPATRHTVDPDRHIERVTELQELFLTRVGLDIGKVWVADDGAAVAVWTTPESVEAGAVFAEIGPRMAELSGSRLAAQQQMEGLLAPHRPKEPAWFLATVGVSPDHQGKGLGSAVVLPGVEAAERAGVPAFLETSAPRNLPFYERLGFTVTADVEVPEGPRTWCMTRKPGA
B2: 22240 (protein)
chain: MALPVTALLLPLALLLHAARPDIQMTQSPSSLSASVGDRVTITCKASDHINNWLAWYQQKPGQAPKLLIYGATTLETGVPSRFSGSGSGTDYTLTISSLQPEDFATYYCQQSWNTPWTFGQGTKLEIKRLEDLKNVFPPEVAVFEPSEAEISHTQKATLVCLATGFYPDHVELSWWVNGKEVHSGVCTDPQPLKEQPALNDSRYCLSSRLRVSATFWQNPRNHFRCQVQFYGLSENDEWTQDRAKPVTQIVSAEAWGRADCGFTSESYQQGVLSATILYEILLGKATLYAVLVSALVLMAMVKRKDSRGRAKRSGSGATNFSLLKQAGDVEENPGPTSATMDWIWRILFLVGAATGAHSGPYINIYNAEPANPSEKNSPSTQYAYGGGSQLGPYELWELSHGSGGSGGGGSGGGGSGGGGSFEQVQLQQPGAELVKPGASVKMSCKASGYAFSSYWINWMKQKPGQGLEWIGQIYPGDGDTNYNGKFKGRATLTADTSSSTAYMQLSSLTSEDSAVYFCARSITTVVGCAMDYWGQGTSVTVSSTRIQNPDPAVYQLRDSKSSDKSVCLFTDFDSQTNVSQSKDSDVYITDKCVLDMRSMDFKSNSAVAWSNKSDFACANAFNNSIIPEDTFFPSPESSCDVKLVEKSFETDTNLNFQNLSVIGFRILLLKVAGFNLLMTLRLWSSRAKRSGSGVKQTLNFDLLKLAGDVESNPGPSRGHMTEYKPTVRLATRDDVPRAVRTLAAAFADYPATRHTVDPDRHIERVTELQELFLTRVGLDIGKVWVADDGAAVAVWTTPESVEAGAVFAEIGPRMAELSGSRLAAQQQMEGLLAPHRPKEPAWFLATVGVSPDHQGKGLGSAVVLPGVEAAERAGVPAFLETSAPRNLPFYERLGFTVTADVEVPEGPRTWCMTRKPGA
B3: 22236 (protein)
chain: MALPVTALLLPLALLLHAARPDIQMTQSPSSLSASVGDRVTITCKASDHINNWLAWYQQKPGQAPKLLIYGATTLETGVPSRFSGSGSGTDYTLTISSLQPEDFATYYCQQSWNTPWTFGQGTKLEIKRLEDLKNVFPPEVAVFEPSEAEISHTQKATLVCLATGFYPDHVELSWWVNGKEVHSGVCTDPQPLKEQPALNDSRYCLSSRLRVSATFWQNPRNHFRCQVQFYGLSENDEWTQDRAKPVTQIVSAEAWGRADCGFTSESYQQGVLSATILYEILLGKATLYAVLVSALVLMAMVKRKDSRGRAKRSGSGATNFSLLKQAGDVEENPGPTSATMDWIWRILFLVGAATGAHSIYPPLLRTSQAMGSGGPGSGSCQFDLSTRRLKCGSGSCQFDLSTRRLKCGSGGGGSGGGGSGGGGSFEQVQLQQPGAELVKPGASVKMSCKASGYAFSSYWINWMKQKPGQGLEWIGQIYPGDGDTNYNGKFKGRATLTADTSSSTAYMQLSSLTSEDSAVYFCARSITTVVGCAMDYWGQGTSVTVSSTRIQNPDPAVYQLRDSKSSDKSVCLFTDFDSQTNVSQSKDSDVYITDKCVLDMRSMDFKSNSAVAWSNKSDFACANAFNNSIIPEDTFFPSPESSCDVKLVEKSFETDTNLNFQNLSVIGFRILLLKVAGFNLLMTLRLWSSRAKRSGSGVKQTLNFDLLKLAGDVESNPGPSRGHMTEYKPTVRLATRDDVPRAVRTLAAAFADYPATRHTVDPDRHIERVTELQELFLTRVGLDIGKVWVADDGAAVAVWTTPESVEAGAVFAEIGPRMAELSGSRLAAQQQMEGLLAPHRPKEPAWFLATVGVSPDHQGKGLGSAVVLPGVEAAERAGVPAFLETSAPRNLPFYERLGFTVTADVEVPEGPRTWCMTRKPGA
B4: 22237 (protein)
chain: MALPVTALLLPLALLLHAARPDIQMTQSPSSLSASVGDRVTITCKASDHINNWLAWYQQKPGQAPKLLIYGATTLETGVPSRFSGSGSGTDYTLTISSLQPEDFATYYCQQSWNTPWTFGQGTKLEIKRLEDLKNVFPPEVAVFEPSEAEISHTQKATLVCLATGFYPDHVELSWWVNGKEVHSGVCTDPQPLKEQPALNDSRYCLSSRLRVSATFWQNPRNHFRCQVQFYGLSENDEWTQDRAKPVTQIVSAEAWGRADCGFTSESYQQGVLSATILYEILLGKATLYAVLVSALVLMAMVKRKDSRGRAKRSGSGATNFSLLKQAGDVEENPGPTSATMDWIWRILFLVGAATGAHSGCPKWDAARCSGGGSGPGSGSCQFDLSTRRLKCGSGSCQFDLSTRRLKCGSGGGGSGGGGSGGGGSFEQVQLQQPGAELVKPGASVKMSCKASGYAFSSYWINWMKQKPGQGLEWIGQIYPGDGDTNYNGKFKGRATLTADTSSSTAYMQLSSLTSEDSAVYFCARSITTVVGCAMDYWGQGTSVTVSSTRIQNPDPAVYQLRDSKSSDKSVCLFTDFDSQTNVSQSKDSDVYITDKCVLDMRSMDFKSNSAVAWSNKSDFACANAFNNSIIPEDTFFPSPESSCDVKLVEKSFETDTNLNFQNLSVIGFRILLLKVAGFNLLMTLRLWSSRAKRSGSGVKQTLNFDLLKLAGDVESNPGPSRGHMTEYKPTVRLATRDDVPRAVRTLAAAFADYPATRHTVDPDRHIERVTELQELFLTRVGLDIGKVWVADDGAAVAVWTTPESVEAGAVFAEIGPRMAELSGSRLAAQQQMEGLLAPHRPKEPAWFLATVGVSPDHQGKGLGSAVVLPGVEAAERAGVPAFLETSAPRNLPFYERLGFTVTADVEVPEGPRTWCMTRKPGA
B5: 22238 (protein)
chain: MALPVTALLLPLALLLHAARPDIQMTQSPSSLSASVGDRVTITCKASDHINNWLAWYQQKPGQAPKLLIYGATTLETGVPSRFSGSGSGTDYTLTISSLQPEDFATYYCQQSWNTPWTFGQGTKLEIKRLEDLKNVFPPEVAVFEPSEAEISHTQKATLVCLATGFYPDHVELSWWVNGKEVHSGVCTDPQPLKEQPALNDSRYCLSSRLRVSATFWQNPRNHFRCQVQFYGLSENDEWTQDRAKPVTQIVSAEAWGRADCGFTSESYQQGVLSATILYEILLGKATLYAVLVSALVLMAMVKRKDSRGRAKRSGSGATNFSLLKQAGDVEENPGPTSATMDWIWRILFLVGAATGAHSQLGPYELWELSHGSGSGSGSQLGPYELWELSHSGGGSGQLGPYELWELSHGSSGPEVQLVESGGGLVQAGGSLRLSCAASGRTFSMGWFRQAPGKEREFVAAITYSGGSPYYADSVKGRFTISRDNAKNTVYLQMNSLKPEDTAVYYCAANPTYGSDWNAENWGQGTQVTVSSGSGGGGSGGGGSGGGGSFEQVQLQQPGAELVKPGASVKMSCKASGYAFSSYWINWMKQKPGQGLEWIGQIYPGDGDTNYNGKFKGRATLTADTSSSTAYMQLSSLTSEDSAVYFCARSITTVVGCAMDYWGQGTSVTVSSTRIQNPDPAVYQLRDSKSSDKSVCLFTDFDSQTNVSQSKDSDVYITDKCVLDMRSMDFKSNSAVAWSNKSDFACANAFNNSIIPEDTFFPSPESSCDVKLVEKSFETDTNLNFQNLSVIGFRILLLKVAGFNLLMTLRLWSSRAKRSGSGVKQTLNFDLLKLAGDVESNPGPSRGHMTEYKPTVRLATRDDVPRAVRTLAAAFADYPATRHTVDPDRHIERVTELQELFLTRVGLDIGKVWVADDGAAVAVWTTPESVEAGAVFAEIGPRMAELSGSRLAAQQQMEGLLAPHRPKEPAWFLATVGVSPDHQGKGLGSAVVLPGVEAAERAGVPAFLETSAPRNLPFYERLGFTVTADVEVPEGPRTWCMTRKPGA
B6: 22241 (protein)
chain: MALPVTALLLPLALLLHAARPDIQMTQSPSSLSASVGDRVTITCKASDHINNWLAWYQQKPGQAPKLLIYGATTLETGVPSRFSGSGSGTDYTLTISSLQPEDFATYYCQQSWNTPWTFGQGTKLEIKRLEDLKNVFPPEVAVFEPSEAEISHTQKATLVCLATGFYPDHVELSWWVNGKEVHSGVCTDPQPLKEQPALNDSRYCLSSRLRVSATFWQNPRNHFRCQVQFYGLSENDEWTQDRAKPVTQIVSAEAWGRADCGFTSESYQQGVLSATILYEILLGKATLYAVLVSALVLMAMVKRKDSRGRAKRSGSGATNFSLLKQAGDVEENPGPTSATMDWIWRILFLVGAATGAHSYINIYNAEPANPSEKNSPSTQYAYGSGSSYINIYNAEPANPSEKNSPSTQYAYGSGGSYINIYNAEPANPSEKNSPSTQYAYGSGSSSYINIYNAEPANPSEKNSPSTQYAYGSGSGSYINIYNAEPANPSEKNSPSTQYAYGPSGSGGGGSGGGGSGGGGSFEQVQLQQPGAELVKPGASVKMSCKASGYAFSSYWINWMKQKPGQGLEWIGQIYPGDGDTNYNGKFKGRATLTADTSSSTAYMQLSSLTSEDSAVYFCARSITTVVGCAMDYWGQGTSVTVSSTRIQNPDPAVYQLRDSKSSDKSVCLFTDFDSQTNVSQSKDSDVYITDKCVLDMRSMDFKSNSAVAWSNKSDFACANAFNNSIIPEDTFFPSPESSCDVKLVEKSFETDTNLNFQNLSVIGFRILLLKVAGFNLLMTLRLWSSRAKRSGSGVKQTLNFDLLKLAGDVESNPGPSRGHMTEYKPTVRLATRDDVPRAVRTLAAAFADYPATRHTVDPDRHIERVTELQELFLTRVGLDIGKVWVADDGAAVAVWTTPESVEAGAVFAEIGPRMAELSGSRLAAQQQMEGLLAPHRPKEPAWFLATVGVSPDHQGKGLGSAVVLPGVEAAERAGVPAFLETSAPRNLPFYERLGFTVTADVEVPEGPRTWCMTRKPGA

The molecules below were run on RAJI cells (assay: JNG assay, co-culture with RAJI cells). Conditions: JNG cells expressing construct, co-culture with Raji.
Type: cell-based
Outline: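 Jurkat-NFAT-GFP (JNG) cells stably expressing SAR constructs via lentiviral transduction and puromycin/blasticidin selection were cocultured with target cells at E:T ~1:2 for ~4–18 h. NFAT-driven GFP was measured by FACS versus parental JNG cells; scores +/- to 5+ denote ~5–50% GFP-positive cells.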

Row | Molecule | NFAT-GFP ASSAY: Raji
1 | B1 | Raji (+) (refer to approximately 5%, 10%, 20%, 30%, 40% and 50% GFP positive cells)
2 | B2 | Raji (3+) (refer to approximately 5%, 10%, 20%, 30%, 40% and 50% GFP positive cells)
3 | B3 | Raji (4+) (refer to approximately 5%, 10%, 20%, 30%, 40% and 50% GFP positive cells)
4 | B4 | Raji (5+) (refer to approximately 5%, 10%, 20%, 30%, 40% and 50% GFP positive cells)
5 | B5 | Raji (+) (refer to approximately 5%, 10%, 20%, 30%, 40% and 50% GFP positive cells)
6 | B6 | Raji (4+) (refer to approximately 5%, 10%, 20%, 30%, 40% and 50% GFP positive cells)
